Patent US20170306033A1 (Amgen, published 2017)
Substitutions are numbered along the chain they refer to.

Columns and labels:
human PAC1 receptor = biological target: T1, human PAC1 receptor (human, UniProt P41586 21-468); test: cell-based or functional assay
T1 sequence: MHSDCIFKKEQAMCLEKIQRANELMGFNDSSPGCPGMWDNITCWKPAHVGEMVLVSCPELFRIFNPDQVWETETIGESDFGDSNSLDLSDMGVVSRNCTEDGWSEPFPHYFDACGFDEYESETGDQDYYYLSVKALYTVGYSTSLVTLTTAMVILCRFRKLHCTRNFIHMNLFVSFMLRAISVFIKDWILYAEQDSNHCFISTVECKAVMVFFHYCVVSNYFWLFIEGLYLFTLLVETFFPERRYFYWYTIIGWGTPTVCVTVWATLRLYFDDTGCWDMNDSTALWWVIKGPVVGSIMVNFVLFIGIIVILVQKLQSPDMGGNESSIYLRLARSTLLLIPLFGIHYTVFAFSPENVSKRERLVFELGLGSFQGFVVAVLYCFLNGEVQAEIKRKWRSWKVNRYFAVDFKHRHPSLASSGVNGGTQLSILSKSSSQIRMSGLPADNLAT

human CGRP receptor = human CGRP receptor (human, UniProt Q16602 23-461; O60894 27-148); test: cell-based or functional assay
human CGRP receptor, sequence (Q16602 23-461 limits assumed, chain 1 of 2): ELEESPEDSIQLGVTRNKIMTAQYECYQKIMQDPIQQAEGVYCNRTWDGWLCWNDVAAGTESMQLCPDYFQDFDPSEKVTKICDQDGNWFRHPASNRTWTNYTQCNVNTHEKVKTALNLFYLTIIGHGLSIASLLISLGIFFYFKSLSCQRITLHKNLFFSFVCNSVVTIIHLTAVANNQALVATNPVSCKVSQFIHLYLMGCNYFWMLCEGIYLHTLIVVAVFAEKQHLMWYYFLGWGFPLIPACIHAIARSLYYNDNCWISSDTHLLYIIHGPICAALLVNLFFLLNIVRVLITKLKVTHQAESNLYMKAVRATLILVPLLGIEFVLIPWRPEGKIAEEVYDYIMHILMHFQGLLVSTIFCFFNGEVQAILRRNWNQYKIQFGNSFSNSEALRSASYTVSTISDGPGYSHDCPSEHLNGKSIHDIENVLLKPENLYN
human CGRP receptor, sequence (O60894 27-148 limits assumed, chain 2 of 2): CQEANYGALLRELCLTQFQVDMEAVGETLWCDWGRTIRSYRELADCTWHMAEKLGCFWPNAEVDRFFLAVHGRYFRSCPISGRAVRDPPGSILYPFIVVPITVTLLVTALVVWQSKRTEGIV

B1: iPS:327698 (bispecific antibody, human IgG1, kappa, lambda, N297G)
light 1: EIVLTQSPATLSLSPGERATLSCRASQSVGRSLHWYQQKPGQAPRLLIKYASQSLSGIPARFSGSGSGTDFTLTISSLEPEDFAVYYCHQSSRLPFTFGEGTKVDIKRTVAAPSVFIFPPSDEQLKSGTASVVCLLNNFYPREAKVQWKVDNALQSGNSQESVTEQDSKDSTYSLESTLTLSKADYEKHKVYACEVTHQGLSSPVTKSFNRGEC
heavy 1: not shown
light 2: QSVLTQPPSVSAAPGQKVTISCSGSSSNIGNNYVSWYQQLPGTAPKLLIYDNNKRPSGIPDRFSGSKSGTSTTLGITGLQTGDEADYYCGTWDSRLSAVVFGKGTKLTVLGQPKANPTVTLFPPSSEELQANKATLVCLISDFYPGAVTVAWKADGSPVKAGVETTKPSKQSNNKYAAKSYLSLTPEQWKSHRSYSCQVTHEGSTVEKTVAPTECS
heavy 2: QVQLVESGGGVVQPGRSLRLSCAASGFTFSSFGMHWVRQAPGKELEWVAVISFDGSIKYSVDSVKGRFTISRDNSKNTLFLQMNSLRAEDTAVYYCARDRLNYYESSGYYHYKYYGMAVWGQGTTVTVSSASTKGPSVFPLAPSSKSTSGGTAALGCLVKDYFPEPVTVSWNSGALTSGVHTFPAVLQSSGLYSLESVVTVPSSSLGTQTYICNVNHKPSNTKVDKKVEPKSCDKTHTCPPCPAPELLGGPSVFLFPPKPKDTLMISRTPEVTCVVVDVSHEDPEVKFNWYVDGVEVHNAKTKPCEEQYGSTYRCVSVLTVLHQDWLNGKEYKCKVSNKALPAPIEKTISKAKGQPREPQVYTLPPSRKEMTKNQVSLTCLVKGFYPSDIAVEWESNGQPENNYKTTPPVLKSDGSFFLYSKLTVDKSRWQQGNVFSCSVMHEALHNHYTQKSLSLSPGK
- % inhibition of human PAC1 (human PAC1 receptor): 96%
- % inhibition of human CGRPR (human CGRP receptor): 90%

B2: iPS:327713 (bispecific antibody, human IgG1, kappa, lambda, N297G)
light 1: DIQLTQSPSFLSASVGDRVTITCRASQSIGRSLHWYQQKPGKAPKLLIKYASQSLSGVPSRFSGSGSGTEFTLTISSLQPEDFATYYCHQSSRLPFTFGPGTKVDIKRTVAAPSVFIFPPSDEQLKSGTASVVCLLNNFYPREAKVQWKVDNALQSGNSQESVTEQDSKDSTYSLESTLTLSKADYEKHKVYACEVTHQGLSSPVTKSFNRGEC
heavy 1: not shown
light 2: B1 light 2 with T72A, K103G
heavy 2: B1 heavy 2 with E44G, E105D, E370K
- % inhibition of human PAC1 (human PAC1 receptor): 85%
- % inhibition of human CGRPR (human CGRP receptor): 89%

B3: iPS:327710 (bispecific antibody, human IgG1, kappa, lambda, N297G)
light 1: B1 light 1
heavy 1: not shown
light 2: B1 light 2 with T72A
heavy 2: B1 heavy 2 with E105D
- % inhibition of human PAC1 (human PAC1 receptor): 61%
- % inhibition of human CGRPR (human CGRP receptor): 82%

B4: iPS:327699 (bispecific antibody, human IgG1, kappa, lambda, N297G)
light 1: not shown
heavy 1: not shown
light 2: B1 light 2 with K103G
heavy 2: B1 heavy 2 with E44G, E370K
- % inhibition of human PAC1 (human PAC1 receptor): 92%
- % inhibition of human CGRPR (human CGRP receptor): 72%

B5: iPS:327712 (bispecific antibody, human IgG1, kappa, lambda, N297G)
light 1: not shown
heavy 1: not shown
light 2: B1 light 2 with T72A, K103G
heavy 2: B1 heavy 2 with E44G, E105D, E370K
- % inhibition of human PAC1 (human PAC1 receptor): 81%
- % inhibition of human CGRPR (human CGRP receptor): 89%

B6: iPS:327714 (bispecific antibody, human IgG1, kappa, lambda, N297G)
light 1: B1 light 1 with E100P
heavy 1: not shown
light 2: B1 light 2 with T72A, K103G
heavy 2: B1 heavy 2 with E44G, E105D, E370K
- % inhibition of human PAC1 (human PAC1 receptor): 104%
- % inhibition of human CGRPR (human CGRP receptor): 94%

B7: iPS:327702 (bispecific antibody, human IgG1, kappa, lambda, N297G)
light 1: B1 light 1 with E100P
heavy 1: not shown
light 2: B1 light 2 with K103G
heavy 2: B1 heavy 2 with E44G, E370K
- % inhibition of human PAC1 (human PAC1 receptor): 86%
- % inhibition of human CGRPR (human CGRP receptor): 79%

B8: iPS:327709 (bispecific antibody, human IgG1, kappa, lambda, N297G)
light 1: B2 light 1 with P100E
heavy 1: not shown
light 2: B1 light 2 with T72A
heavy 2: B1 heavy 2 with E105D
- % inhibition of human PAC1 (human PAC1 receptor): 29%
- % inhibition of human CGRPR (human CGRP receptor): 82%

B9: iPS:327704 (bispecific antibody, human IgG1, kappa, lambda, N297G)
light 1: not shown
heavy 1: not shown
light 2: B1 light 2 with T72A, K103G
heavy 2: B1 heavy 2 with E44G, E105D
- % inhibition of human PAC1 (human PAC1 receptor): 71%
- % inhibition of human CGRPR (human CGRP receptor): 82%

B10: iPS:327708 (bispecific antibody, human IgG1, kappa, lambda, N297G)
light 1: not shown
heavy 1: not shown
light 2: B1 light 2 with T72A
heavy 2: B1 heavy 2 with E105D
- % inhibition of human PAC1 (human PAC1 receptor): 18%
- % inhibition of human CGRPR (human CGRP receptor): 79%

B11: iPS:327700 (bispecific antibody, human IgG1, kappa, lambda, N297G)
light 1: not shown
heavy 1: not shown
light 2: B1 light 2 with K103G
heavy 2: B1 heavy 2 with E44G, E370K
- % inhibition of human PAC1 (human PAC1 receptor): 72%
- % inhibition of human CGRPR (human CGRP receptor): 77%

B12: iPS:327703 (bispecific antibody, human IgG1, kappa, lambda, N297G)
light 1: not shown
heavy 1: not shown
light 2: B1 light 2 with T72A, K103G
heavy 2: B1 heavy 2 with E44G, E105D
- % inhibition of human PAC1 (human PAC1 receptor): 87%
- % inhibition of human CGRPR (human CGRP receptor): 83%

B13: iPS:327711 (bispecific antibody, human IgG1, kappa, lambda, N297G)
light 1: not shown
heavy 1: not shown
light 2: B1 light 2 with T72A, K103G
heavy 2: B1 heavy 2 with E44G, E105D, E370K
- % inhibition of human PAC1 (human PAC1 receptor): 97%
- % inhibition of human CGRPR (human CGRP receptor): 87%

B14: iPS:327701 (bispecific antibody, human IgG1, kappa, lambda, N297G)
light 1: B2 light 1
heavy 1: not shown
light 2: B1 light 2 with K103G
heavy 2: B1 heavy 2 with E44G, E370K
- % inhibition of human PAC1 (human PAC1 receptor): 41%
- % inhibition of human CGRPR (human CGRP receptor): 73%

B15: iPS:326661 (bispecific antibody, human IgG2, kappa)
light 1: not shown
heavy 1: QVQLQQSGPGLVKPSQTLSLTCAISGDSVSSNSATWNWIRQSPSRGLEWLGRTYYRSKWSNHYAVSVKSRITINPDTSKSQFSLQLNSVTPEDTAVYYCARGTWKQLWFLDHWGQGTLVTVSSASTKGPSVFPLAPCSRSTSESTAALGCLVKDYFPEPVTVSWNSGALTSGVHTFPAVLQSSGLYSLKSVVTVPSSNFGTQTYTCNVDHKPSNTKVDKTVERKCCVECPPCPAPPVAGPSVFLFPPKPKDTLMISRTPEVTCVVVDVSHEDPEVQFNWYVDGVEVHNAKTKPREEQFNSTFRVVSVLTVVHQDWLNGKEYKCKVSNKGLPAPIEKTISKTKGQPREPQVYTLPPSREEMTKNQVSLTCLVDGFYPSDIAVEWESNGQPENNYDTTPPMLDSDGSFFLYSDLTVDKSRWQQGNVFSCSVMHEALHNHYTQKSLSLSPGK
light 2: EIVLTQSPGTLSLSPGERATLSCRASQSVSSGYLTWYQQKPGQAPRLLIYGASSRATGIPDRFSGSGSGTDFTLTISRLEPEDFAVYYCQQYGNSLSRFGQGTKLEIKRTVAAPSVFIFPPSDEQLKSGTASVVCLLNNFYPREAKVQWKVDNALQSGNSQESVTEQDSKDSTYSLKSTLTLSKADYEKHKVYACEVTHQGLSSPVTKSFNRGEC
heavy 2: QVQLVESGGGVVQPGRSLRLSCAASGFTFSSYGMHWVRQAPGKGLEWVAVIWYDGSNKYYADSVKGRFIISRDKSKNTLYLQMNSLRAEDTAVYYCARAGGIAAAGLYYYYGMDVWGQGTTVTVSSASTKGPSVFPLAPCSRSTSESTAALGCLVKDYFPEPVTVSWNSGALTSGVHTFPAVLQSSGLYSLESVVTVPSSNFGTQTYTCNVDHKPSNTKVDKTVERKCCVECPPCPAPPVAGPSVFLFPPKPKDTLMISRTPEVTCVVVDVSHEDPEVQFNWYVDGVEVHNAKTKPREEQFNSTFRVVSVLTVVHQDWLNGKEYKCKVSNKGLPAPIEKTISKTKGQPREPQVYTLPPSRKKMTKNQVSLTCLVKGFYPSDIAVEWESNGQPENNYKTTPPMLKSDGSFFLYSKLTVDKSRWQQGNVFSCSVMHEALHNHYTQKSLSLSPGK
- % inhibition of human PAC1 (human PAC1 receptor): 72%
- % inhibition of human CGRPR (human CGRP receptor): 77%
